Source: article doi:10.1101/701250 (bioRxiv, 2019)
Like-named read-outs stand apart in the source and are kept apart here.

B2: KIF3A purified from E. coli (natural protein, Mus musculus, UniProt P28741 1-701, looked up)
chain: MPINKSEKPESCDNVKVVVRCRPLNEREKSMCYRQAVSVDEMRGTITVHKTDSSNEPPKTFTFDTVFGPESKQLDVYNLTARPIIDSVLEGYNGTIFAYGQTGTGKTFTMEGVRAVPGLRGVIPNSFAHIFGHIAKAEGDTRFLVRVSYLEIYNEEVRDLLGKDQTQRLEVKERPDVGVYIKDLSAYVVNNADDMDRIMTLGHKNRSVGATNMNEHSSRSHAIFTITIECSEKGVDGNMHVRMGKLHLVDLAGSERQAKTGATGQRLKEATKINLSLSTLGNVISALVDGKSTHVPYRNSKLTRLLQDSLGGNSKTMMCANIGPADYNYDETISTLRYANRAKNIKNKARINEDPKDALLRQFQKEIEELKKKLEEGEEVSGSDISGSEEDDEEGELGEDGEKKKKRRDQAGKKKVSPDKMVEMQAKIDEERKALETKLDMEEEERNKARAELERREKDLLKAQQEHQSLLEKLSALEKKVIVGGVDLLAKAEEQEKLLEESNMELEERRRRAEQLRKELEEKEQERLDIEEKYTSLQEEAQGKTKKLKKVWTMLMAAKSEMADLQQEHQREIEGLLENIRQLSRELRLQMLIIDNFIPQDYQEMIENYVHWNEDIGEWQLKCVAYTGNNMRKQTPVPDKKERDPFEVDLSHVYLAYTEESLRQSLMKLERPRTSKGKARPKMGRRKRSAKPETVIDSLLQ

Experiments:
[1] = target: the molecule itself
SEC-MALS = target: the molecule itself; experiment: SEC-MALS
full-length APC-GFP = full-length APC-GFP (Mus musculus, UniProt Q61315 1-2845); experiment: MST
[2] = target: B2; experiment: SEC-MALS

Chain of full-length APC-GFP (Q61315 whole entry): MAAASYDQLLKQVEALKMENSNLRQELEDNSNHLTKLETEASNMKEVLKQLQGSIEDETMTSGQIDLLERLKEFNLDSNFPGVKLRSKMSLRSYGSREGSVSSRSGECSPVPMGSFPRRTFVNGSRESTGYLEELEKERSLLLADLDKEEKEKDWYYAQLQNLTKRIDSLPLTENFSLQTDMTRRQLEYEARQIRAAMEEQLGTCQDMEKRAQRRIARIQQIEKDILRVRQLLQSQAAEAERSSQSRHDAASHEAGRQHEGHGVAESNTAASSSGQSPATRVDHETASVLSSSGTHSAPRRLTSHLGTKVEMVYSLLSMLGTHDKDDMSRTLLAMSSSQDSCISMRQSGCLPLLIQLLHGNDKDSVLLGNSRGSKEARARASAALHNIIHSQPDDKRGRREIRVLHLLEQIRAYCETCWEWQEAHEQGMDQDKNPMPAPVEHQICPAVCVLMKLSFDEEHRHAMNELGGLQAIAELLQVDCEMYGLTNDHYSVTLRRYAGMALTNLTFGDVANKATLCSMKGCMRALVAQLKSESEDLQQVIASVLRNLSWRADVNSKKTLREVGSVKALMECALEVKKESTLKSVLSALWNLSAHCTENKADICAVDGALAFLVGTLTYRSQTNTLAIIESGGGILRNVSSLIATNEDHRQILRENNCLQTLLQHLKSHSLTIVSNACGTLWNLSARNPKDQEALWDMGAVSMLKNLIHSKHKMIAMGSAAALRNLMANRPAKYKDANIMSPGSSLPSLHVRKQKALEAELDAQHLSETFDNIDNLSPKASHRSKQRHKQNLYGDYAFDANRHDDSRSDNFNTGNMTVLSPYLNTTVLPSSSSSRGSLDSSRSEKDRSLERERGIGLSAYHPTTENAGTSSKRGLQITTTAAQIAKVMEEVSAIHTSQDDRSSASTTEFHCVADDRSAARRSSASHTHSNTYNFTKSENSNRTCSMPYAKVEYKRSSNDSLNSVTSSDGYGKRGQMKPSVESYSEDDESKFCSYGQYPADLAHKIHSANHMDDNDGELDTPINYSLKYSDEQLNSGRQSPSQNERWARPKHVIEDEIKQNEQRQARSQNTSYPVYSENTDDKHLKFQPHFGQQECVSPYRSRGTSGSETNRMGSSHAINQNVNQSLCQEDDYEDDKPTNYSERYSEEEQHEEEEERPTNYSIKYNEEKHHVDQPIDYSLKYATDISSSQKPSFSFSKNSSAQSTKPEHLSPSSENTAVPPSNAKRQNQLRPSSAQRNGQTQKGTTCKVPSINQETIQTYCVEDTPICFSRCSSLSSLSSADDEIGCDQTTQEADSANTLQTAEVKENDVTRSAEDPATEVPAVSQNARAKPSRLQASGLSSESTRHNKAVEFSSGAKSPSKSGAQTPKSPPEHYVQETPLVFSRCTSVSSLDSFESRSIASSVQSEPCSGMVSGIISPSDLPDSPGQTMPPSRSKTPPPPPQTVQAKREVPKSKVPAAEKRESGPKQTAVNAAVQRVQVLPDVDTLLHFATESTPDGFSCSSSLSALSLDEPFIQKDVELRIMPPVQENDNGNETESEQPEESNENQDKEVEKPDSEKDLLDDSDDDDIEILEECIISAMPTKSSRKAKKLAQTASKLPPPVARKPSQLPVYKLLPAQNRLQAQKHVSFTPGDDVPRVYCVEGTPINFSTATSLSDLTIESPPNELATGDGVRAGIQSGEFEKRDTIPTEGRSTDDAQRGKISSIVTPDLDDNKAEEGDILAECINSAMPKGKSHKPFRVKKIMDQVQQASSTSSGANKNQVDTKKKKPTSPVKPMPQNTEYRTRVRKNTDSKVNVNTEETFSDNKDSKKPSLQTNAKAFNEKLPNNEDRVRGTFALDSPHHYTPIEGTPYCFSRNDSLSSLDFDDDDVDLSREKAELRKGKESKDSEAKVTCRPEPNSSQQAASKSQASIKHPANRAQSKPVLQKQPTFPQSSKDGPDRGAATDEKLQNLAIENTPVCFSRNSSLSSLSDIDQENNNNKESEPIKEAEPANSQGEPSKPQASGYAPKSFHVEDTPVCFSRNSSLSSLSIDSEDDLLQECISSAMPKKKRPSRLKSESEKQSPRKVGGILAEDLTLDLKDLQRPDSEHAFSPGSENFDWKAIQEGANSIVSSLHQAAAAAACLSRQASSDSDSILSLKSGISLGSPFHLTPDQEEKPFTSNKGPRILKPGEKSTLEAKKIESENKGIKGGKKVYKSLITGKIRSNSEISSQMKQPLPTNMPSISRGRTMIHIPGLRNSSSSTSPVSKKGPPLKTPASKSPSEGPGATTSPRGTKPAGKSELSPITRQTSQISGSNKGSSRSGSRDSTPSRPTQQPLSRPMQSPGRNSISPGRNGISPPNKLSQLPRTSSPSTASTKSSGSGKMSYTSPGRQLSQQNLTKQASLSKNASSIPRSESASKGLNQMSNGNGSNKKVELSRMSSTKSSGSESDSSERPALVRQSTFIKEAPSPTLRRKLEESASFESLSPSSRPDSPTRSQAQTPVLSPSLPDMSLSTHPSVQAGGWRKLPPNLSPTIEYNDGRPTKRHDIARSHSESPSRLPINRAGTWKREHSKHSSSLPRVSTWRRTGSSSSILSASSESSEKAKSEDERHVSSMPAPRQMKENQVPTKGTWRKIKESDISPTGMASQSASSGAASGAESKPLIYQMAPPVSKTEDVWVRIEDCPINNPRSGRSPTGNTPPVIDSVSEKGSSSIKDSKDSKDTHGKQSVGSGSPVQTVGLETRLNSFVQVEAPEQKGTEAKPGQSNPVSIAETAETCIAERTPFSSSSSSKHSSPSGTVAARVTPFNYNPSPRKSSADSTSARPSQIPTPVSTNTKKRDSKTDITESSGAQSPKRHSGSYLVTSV

B1: homodimeric KIF3A-SNAP labelled with Alexa647 or TMR (natural protein, Mus musculus, UniProt P28741 1-701, looked up)
chain: MPINKSEKPESCDNVKVVVRCRPLNEREKSMCYRQAVSVDEMRGTITVHKTDSSNEPPKTFTFDTVFGPESKQLDVYNLTARPIIDSVLEGYNGTIFAYGQTGTGKTFTMEGVRAVPGLRGVIPNSFAHIFGHIAKAEGDTRFLVRVSYLEIYNEEVRDLLGKDQTQRLEVKERPDVGVYIKDLSAYVVNNADDMDRIMTLGHKNRSVGATNMNEHSSRSHAIFTITIECSEKGVDGNMHVRMGKLHLVDLAGSERQAKTGATGQRLKEATKINLSLSTLGNVISALVDGKSTHVPYRNSKLTRLLQDSLGGNSKTMMCANIGPADYNYDETISTLRYANRAKNIKNKARINEDPKDALLRQFQKEIEELKKKLEEGEEVSGSDISGSEEDDEEGELGEDGEKKKKRRDQAGKKKVSPDKMVEMQAKIDEERKALETKLDMEEEERNKARAELERREKDLLKAQQEHQSLLEKLSALEKKVIVGGVDLLAKAEEQEKLLEESNMELEERRRRAEQLRKELEEKEQERLDIEEKYTSLQEEAQGKTKKLKKVWTMLMAAKSEMADLQQEHQREIEGLLENIRQLSRELRLQMLIIDNFIPQDYQEMIENYVHWNEDIGEWQLKCVAYTGNNMRKQTPVPDKKERDPFEVDLSHVYLAYTEESLRQSLMKLERPRTSKGKARPKMGRRKRSAKPETVIDSLLQ
modifications: Alexa647 or TMR on the SNAP tag
For B1, the “stoichiometry N” value [1] was 2.

B2 was tested, and the “stoichiometry N” value (SEC-MALS) was 2.

B3: KAP3 (separately purified) (natural protein, Mus musculus, UniProt P70188-1 1-793, looked up)
chain: MQGEDARYLKRKVKGGNIDVHPSEKALIVQYEVEATILGEMGDPMLGERKECQKIIRLKSLNANTDITSLARKVVEECKLIHPSKLSEVEQLLYYLQNRRDSLPGKEKKEKSSKPKDPPPFEGMEIDEVANINDMDEYIELLYEDIPDKVRGSALILQLARNPDNLEELLLNETALGALARVLREDWKQSVELATNIIYIFFCFSSFSHFHGLITHYKIGALCMNIIDHELKRHELWQEELSKKKKAVDEDLENQTLRKDYDKTFKKYQGLVVKQEQLLRVALYLLLNLAEDTRTELKMRNKNIVHMLVKALDRDNFELLILVVSFLKKLSIFMENKNDMVEMDIVEKLVKMIPCEHEDLLNITLRLLLNLSFDTGLRNKMVQVGLLPKLTALLGNENYKQIAMCVLYHISMDDRFKSMFAYTDCIPQLMKMLFECSDERIDLELISFCINLAANKRNVQLICEGNGLKMLMKRALKLKDPLLMKMIRNISQHDGPTKNLFIDYVGDLAAQISSDEEEEFVIECLGTLANLTIPDLDWELVLKEYKLVPFLKDKLKPGAAEDDLVLEVVIMIGTVSMDDSCAALLAKSGIIPALIELLNAQQEDDEFVCQIIYVFYQMVFHQATRDVIIKETQAPAYLIDLMHDKNNEIRKVCDNTLDIIAEYDEEWAKKIQSEKFRWHNSQWLEMVESRQLDESEQYLYGDDRIEPYIHEGDILERPDLFYNSDGLITSEGAISPDFFNDFHLQNGDVVGQHAFPGSLGMDGFGQPLGILGRPATAYGFRPDEPYYYSFGSR
For B3, the binding result (full-length APC-GFP) was “binds” and the “stoichiometry N” value [2] was 1 KAP3 per KIF3A dimer.
